# Test: soluble on expression in E. coli; label from the status in PepcDB or PDB records
row,Sequence,soluble on expression in E. coli
1,MSYPATRAEQVVDTLHGVQVADPYRWLEDEKAPEVQTWMTAQNAHAREALAKFPGREALAARFKELFYTDSVSTPSRRNGRFFYVRTHKDKEKAILYWRQGESGQEKVLLDPNGWSKDGTVSLGTWAVSWDGKKVAFAQKPNAADEAVLHVIDVDSGEWSKVDVIEGGKYATPKWTPDSKGFYYEWLPTDPSIKVDERPGYTTIRYHTLGTEPSKDTVVHERTGDPTTFLQSDLSRDGKYLFVYILRGWSENDVYWKRPGEKDFRLLVKGVGAKYEVHAWKDRFYVLTDEGAPRQRVFEVDPAKPARASWKEIVPEDSSASLLSVSIVGGHLSLEYLKDATSEVRVATLKGKPVRTVQLPGVGAASNLMGLEDLDDAYYVFTSFTTPRQIYKTSVSTGKSELWAKVDVPMNPEQYQVEQVFYASKDGTKVPMFVVHRKDLKRDGNAPTLLYGYGGFNVNMEANFRSSILPWLDAGGVYAVANLRGGGEYGKAWHDAGRLDKKQNVFDDFHAAAEYLVQQKYTQPKRLAIYGGSNGGLLVGAAMTQRPELYGAVVCAVPLLDMVRYHLFGSGRTWIPEYGTAEKPEDFKTLHAYSPYHHVRPDVRYPALLMMAADHDDRVDPMHARKFVAAVQNSPGNPATALLRIEANAGHGGADQVAKAIESSVDLYSFLFQVLDVQGAQGGVAAQGRHHHHHH,soluble
2,MSYPMTPVKRPTISHGIQASDGIIKRPIEGNKKRLSAPIKDKPEHRIAPEEITNAPTTSRLRRAPEFDVVVIMKTTKKDRKKIIQTPRRRSIKLANVPMTPKTAPIRRHSTGGNAAMSTPKRRKSFGSLAPVRQHRVETRKVVRNLMAVRPPLCF,soluble
3,MTAEILVVGSILPSDKFFCFLMGPAPVFPNSRKPATLDANSDEQTLRPYFKTKVEQAEQTVAEKSINVRRLMAQQKELNGKVRLLKEEISHLHEQGSHVGEVCKAMDKKKVLVKNHPDGKYIVDVAASVDISTLAAGTRVALRADNYAIHEVLPSKVDPLVSLMMVEKVPDSTYEMVGGLDTQIKEIKEVIELPVKHPELFDALGIAQPKGVLLYGPPGTGKTLLARAVAHHTECTFIRVSGSELVQKFIGEGARMVRELFVMAREHAPSIIFMDEIDSIGSSRVEGSRGGDSEVQRTMLELLNQLDGFEATKNIKVIMATNRIDILDSALLRPGRIDRKIEFPAPDEKARAQILKIHSRKMNLMRGIRMDKIAEQIPGASGAEVKSVCTEAGMFALRERRIHVTQEDFEMAVGKVMQKDSEKNMSIKKLWK,not soluble
4,MTAGGERVTERGTGSDPVDLFIIGGGINGCGIARDAAGRGLSVTLAEMGDLAQATSSASTKLFHGGLRYLEYFEFRLVREALEERETLLVAMPHISWPMRFVLPWQPEMRFAGDTPTARLLGRLMPWARGRRPAWLIRLALETYDRLGGRKILPPARSVDLTRDPAGRALQPRFTKGWEYSDCWVEDSRLVVLNARDAEIRGATILTRTKVVGAERRGDLWHVTTEGARGRQVHRARALVNAGGPWVARIIRETLALPTTEGVRLVRGSHIVTKRLFDHDRCYFFQGTDGRIIFAIPYETDFTLIGTTDQDHRGAPDEARCTPEEQDYLCTFASDYFRKPVTREDIVWTYSGVRPLHDDGARSATAATRDYVLSLDSRGAPLLNVFGGKITTYRRLAESAMAKLAGHFPQARGAWTARVPLPGGDFPWDGAPALAEGLRRDYPFLTERWAMRLVRAYGTDARNLLGPARSALDLGRDFGATLTEAEVRWLMDREYAERAEDVVWRRSKLGLRLTPEEIAALDGWMKDAGGAMEARADTGLEHHHHHH,soluble
5,MTAHRSVLLVVHTGRDEATETARRVEKVLGDNKIALRVLSAEAVDRGSLHLAPDDMRAMGVEIEVVDADQHAADGCELVLVLGGDGTFLRAAELARNASIPVLGVNLGRIGFLAEAEAEAIDAVLEHVVAQDYRVEDRLTLDVVVRQGGRIVNRGWALNEVSLEKGPRLGVLGVVVEIDGRPVSAFGCDGVLVSTPTGSTAYAFSAGGPVLWPDLEAILVVPNNAHALFGRPMVTSPEATIAIEIEADGHDALVFCDGRREMLIPAGSRLEVTRCVTSVKWARLDSAPFTDRLVRKFRLPVIGWRGK,soluble
6,MTALISISLLLVTFAGAAEMCAPVTQHSTPQSDVPSTVTITFHKLETSTTTKDEILNAIRTSHPDVHATGEPIDKKSIKVTLTAVSCVTAMKLAEEVLNAGTPVVLNAYAMLCDGEISTNIKP,soluble
7,MTAPFKDHFSTGSANYAAHRPTYPAQLVDELAALCPGTRLALDCGCGTGQLTVLLAERFERVVGTDASAAQIDKAQARERVEYRVALAEDSGLAAASADLVTVAQAAHWLDLPRFYEEVRRVARADAILALVTYGVLHVDGPMEPLVQHFYHQVVGPYWPAERRHVEEGYRNLPFPFEERRLPDLAIEVAWTLDELLGYVGTWSAVKEAGKALGQDPGAAFVDELREAWGDPQTRYRVSWPLTVRAGVIR,not soluble
8,MTAPGSVPLTVIGGFWGAGKTTLLNYLLKVQHSERVLVMVNDFGSINIDAELLDQGRHDRPGVVRLQNGCVCCSIGGDLMQAFLQVMSMPDRPDRIIVEASGVADPTRIAQIGRVSGGLSDEGVITLVDASAVRALAADKYVGDIVRQQILSADIVLLNKLDLSSDAEIVETRAWLRDLAPRTRVVSCIHGEVDAVSVLGIGAGKVAPDTAGGPVDVPVPDLRRASTRHADTFHSSTLATEHRFDRRRIEYALDALPQTVLRGKGFVELEGEATPALLQLCGSRWTLDPVSTPAPPAGTHLVFIATGGRGVPRFDAPSHFEQALASRDAASADTSNLEHHHHHH,not soluble
9,MTATSLWELAERARKRLSEIAKGNRDRALLAMADLLEARWEEVLRANREDLEEAERTGLPKAKLDRLALKEKDLKTLTEGLRQIARLPDPLGRIEGLAKRPNGLRVGRMRVPLGLIGFIYEARPGATVEAVSVALKAGNAMLLRGGKEAFRSNRALVALWHEALGEAGLPEEAVTLVPTTDREAVLEMCRLELLDLLIPRGGEELIRLVQREARVPVLAHAKGVNHLYVDKKADLSMALRLALNGKTQRPAVCNALETVLVHEKVAEAFLPRLEKAMREKGVELRACPRALPLLKEAVPAREDEWDREYLDLVLRVKVVSGLEEALAHIARYGSRHTEAICTEDPKAAWRFLEEVDASLVLWNASTRFNDGFELGLGAEIGISTSKLHAYGPMGPMELTTLKWVALGEGQERT,soluble
10,MTAYLNALGVICALGDSREEVARRLFAGDSSGMVVESGWVPERALPVGAVKGALPAMPPAMRSQHSRNNQLLLAAALQIKDEIGQAIEQYGAGRIGVIIGTSTSGIDEASSSMASWLRDQTFPADYDYRQQELGAPANFLATWLQLSGPAYVISTACTSSARALLSARRALDMGLCDAVLCGGVDSLCKLTLNGFSALEAMSPQLCNPFSLNRNGINIGEAAALFLMTREAGSTHSIALLGAGANCDAHHISAPEPSGRGARDAMLQALSNARLEAAQISYLNLHGTATQLNDAMESLAVQAVFPEGVPCSSTKSLSGHTLGAAGALEIAFCWLSLVPHNTEHALPPQVWDGAADPLLPALHWTVPGARLAAADTRYMMSNSFAFGGNNISLIIGDAP,not soluble
11,MTCDDWNSFIQVNIYGKTIEGLQQQGVVLESLLNNIGCSKLWIVEGSMYTSLTNESSTYSESTIEPVVPLSTTLATNKLPRFSTPAVGHSKYNSAKNFTLNLAEKLSEILSDDDKTDKCLENSYQSETSREDVIQDLLEEMVQTVADVDQAPILLSTTLANIGVPRFSTPIKPQNGLDRKFTMNMTERISEIDSNYQGYELFEDSSNDCTTLIPNCQEVESSFYRALPEAASSIVPYQEGKRRSSRRLSTLSSLKETVKIEPTVSKLTKRRRLTSIESSNETMVPHSEPIPLDKDGFSYEQPINEYGDNESFLSAKSLCTEPRSSISEDVKPVLKATDSERTVSIGNHIVDHHPVIELSTEHNTMGEFQYDFDDEDTVLIGNYEEVGTEIDEAEQQNEENSEDDEEDESPIPSTKKVSFAVPVVQRLNKRNEQMNKNHIIKCNFEGCKQILSWKLRYGKQRLLDHAMTHENEKCLVCRTCEYSCSTHPQMKYHYQKMHPEVRCDGFNIQKVFNIEFDEVAIFDLFQKCFGAHSSIIGNIGKPRRYKKCKNSLKNTPEVDNENVDKDSPGPSHDLF,not soluble
12,MTDEIISYQKAKLAKNLAISTASKWLFVHSSTGGSATNLSIAQYATLINGIQSAIKCQVILTAGKGERERAVELAEKLTDQNVVIYDKNDGLADFTRSLACADLFIAGSTGPLHIAGGLNIPTVGFYPSRLSATPRRWRPINQVDKHLAFCPPSGKQCEMDLTLISIEQALTSVIPFIKKMWQLSLEHHHHHH,soluble
13,MTDKYRLRERVWDDLEDSGVARFPFPPHGRIPNYAGADEAAARLTETDVWQRAETVKANPDAPQLPVRRAALRAGKTLYAAVPRLRDEECFLRLDPTTIDDIDAATTVSGIEEYGDPVGPGDVDPIDLIVSGSVAVTDRGERVGKGEGYSDLEFALLRAFGRVDDDTATVTTVHERQVVDDAVPTAAHDVPMEYVVTPDRTITTTHEDDTPSGIDWDALDEQRLAEIPVLDRRSP,soluble
14,MTDVTSPVVDEKPCFGANPQIFKLGLGKQHILAHDIGQGSQCRNLPTCRCEGLDLHFWRKMCKNCGCRMDEHDVVLPNEFDHAQIVIGRLFGAREHFEKVLTKPGMYKPNEQNETKENNMMSTRSQPTAVYNYKMASSDSESERGGSNNKENVQYAWAPLPDKNLVSRYMKALPEDERPLVGSKGEQNRKSRLQFQLPLYDCNVEDARFVEEKDVKTLQNFVENVRNNVIGVGRVVEIGKDSDNYGDNENTNEFEKSMTAALKGLKIGETDCKDCNEMMETGDIGVECHHHSTTDTYHPNCFRCETCRQLLVDNIYFFYKNKYYCGRHYADQLYPRCAGCDELIFANEYTFAEEKSWHFDHFACYKCDFKLGGSRYMTRDENPFCLDCYLKHFAKTCDTCQSKIGPDEKRLNYNETHWHAEERCFQCVQCKMNLIGKKFMLKNHKLLCSSQCKANYNSANPDDQL,not soluble
15,MTEADDPKKKIRARIERDVYSVLLSFQEGATPNQVERRMDDTLGYTYVGKYVQAGVRDMAQLLREHKDVRQNLSGVFSVVANEDNQDLINLISKQKKKKKGGKGAKPIRAATSMGFHNKSGFGYAAHLRSPKPSFMYPASSARANPAKPQATGYRNTVRHPPVRPSTATGHSSFANRSAYSHHTTRSTTVGPVKIAPSATAQRPLLRQPVTVVQRLSSTVAVPVLQPGIDSKCMPSIVDFSNNVKRMMLLEYPADVHLSELTEIYDKHFDVSIDPLQLFSKSWMMFVKTSFKEWLQLGTDGRVEVKEPWFTNFGAALKKSMPPAPEKKKPTTLHEPTSSVASSSLPISQGFRYQIPVVRPIVSVAESMKGLTVSARSVMGTPKDLPGVSNPIKNTARGSNKPRNDLASSKASKDLVVPVMKTTCIKSLEDTSTSSSNPSTLQLSTASTSATDQKLPKMSFGRQIEKGSSIPGRHISLALTEIKNQKVIAASIVGKSAKTSTKVPSTTRSVVLPPMSKGPGLARSRNFSPQQSTTSSIDNECLEAINAALPSDKDSW,soluble
16,MTEDQVEILEYNFNKVNKHPDPTTLCLIAAEAGLTEEQTQKWFKQRLAEWRRSEGLPSECRSVTD,soluble
17,MTEFSASLAPQVEAFLRYLSIERQLSPLTVTSYRRQLSALMEIGEQMGLAHWQTLDAAQVRSLVSRSKRAGLHASSLALRLSALRSFLNWLVSQGVLPANPAKGVSTPRSGRHLPKNIDVDEVNKLLSIDLNDPLAVRDRAMLEVMYGAGLRLSELVGMNCKHVDLASGDVWVMGKGSKERKVPLGKTAVTWLQHWLALRELFEPQDDAIFLANTGKRISARNVQKRFAEWGVKQGVSSHIHPHKLRHSFATHMLESSGDLRAVQELLGHANLTTTQIYTHLDFQHLATVYDAAHPRAKRGKS,not soluble
18,MTEILQTLKEYIPISLEEMSGIKLMNRTDTKYVTSYQILKEILLAAGHDYRVQEVNGEYNIAYHTIYLDTADRDMYLTHQNGRVVREKIRIRTYVDSDLTFLEVKNKNNKGRTDKKRIRIGSIDTIKEDGGEAFLRQHAWYEQSQLLPLLENSFRRITLVNKHKTERLTIDTGVTFCCLQSGKISSLDNIVIIELKRDGHNSSPIKEILRKLHIQSSGFSKYCIGSALTVSHLKCNRLKPKLRMLNKMGVYLEHHHHHH,soluble

# Reference: the DeepSol protein solubility set
